Data from patent US9605266.

Molecular target: C-C chemokine receptor type 5 (CCR5) (Homo sapiens) (UniProt P51681)
Experiment: flow
Settings: 2'-F pyrimidines (2'-F-C, 2'-F-U), negative control

Chain of C-C chemokine receptor type 5 (CCR5) (Homo sapiens) (P51681 whole entry): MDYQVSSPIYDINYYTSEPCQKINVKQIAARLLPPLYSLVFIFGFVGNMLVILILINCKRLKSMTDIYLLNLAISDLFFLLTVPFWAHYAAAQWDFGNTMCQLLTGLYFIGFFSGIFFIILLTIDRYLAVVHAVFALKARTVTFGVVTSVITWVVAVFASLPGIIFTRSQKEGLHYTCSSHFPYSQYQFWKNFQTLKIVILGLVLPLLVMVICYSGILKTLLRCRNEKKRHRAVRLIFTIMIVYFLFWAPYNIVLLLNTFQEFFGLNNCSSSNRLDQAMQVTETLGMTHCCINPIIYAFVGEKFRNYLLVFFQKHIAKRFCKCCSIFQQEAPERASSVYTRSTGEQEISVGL

Question: “GGGAGGACGAUGCGGNNNNNNNNNNNNNNNNNNNNCAGACGACUCGCCCGA [0-RNA pool (starting library)]” was tested. Which binding signal (% Cy3-positive cells) (untreated 0.076%) did it give?
Answer: 0.808

Question: And the binding signal (% Cy3-positive cells) (untreated 0.191%)?
Answer: 7.63
